Legend:
[1] = target: T1, mouse FcγRII extracellular domain, C-terminal His tag (mouse, UniProt P08101 30-210); test: SPR (Biacore T200); KD of H237-mIgG1/MRAL-k0 / KD of variant
T1 construct: Whole entry named; also called mFcγRII; mFcgRII
T1 sequence: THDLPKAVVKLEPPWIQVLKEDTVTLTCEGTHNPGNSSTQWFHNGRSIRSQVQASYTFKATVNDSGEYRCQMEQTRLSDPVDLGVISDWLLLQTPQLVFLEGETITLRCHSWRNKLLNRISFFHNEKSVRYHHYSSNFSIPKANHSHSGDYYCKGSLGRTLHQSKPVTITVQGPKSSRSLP

[2] = target: T2, mouse FcγRIII extracellular domain, C-terminal His tag (mouse, UniProt P08508 31-215); test: as above
T2 construct: Whole entry named; also called mFcγRIII; mFcgRIII
T2 chain: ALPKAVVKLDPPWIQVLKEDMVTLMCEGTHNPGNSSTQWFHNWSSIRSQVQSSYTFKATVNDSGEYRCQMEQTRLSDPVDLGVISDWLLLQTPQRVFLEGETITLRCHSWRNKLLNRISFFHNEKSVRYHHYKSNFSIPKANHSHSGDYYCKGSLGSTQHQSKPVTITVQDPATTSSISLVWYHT

[3] = target: T3, mouse FcγRII (mouse, UniProt P08101 30-210); test: SPR (Biacore), antibody captured on Protein L
T3 construct: Extracellular domain with C-terminal His tag, made in FreeStyle 293 cells; also called mFcγRII; mFcgRII
T3 sequence: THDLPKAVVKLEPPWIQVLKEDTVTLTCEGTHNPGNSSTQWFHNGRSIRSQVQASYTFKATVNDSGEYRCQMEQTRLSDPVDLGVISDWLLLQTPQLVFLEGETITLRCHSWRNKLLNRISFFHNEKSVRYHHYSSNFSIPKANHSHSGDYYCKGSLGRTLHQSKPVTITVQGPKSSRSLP

[4] = target: T4, mouse FcγRIII (mouse, UniProt P08508 31-215); test: SPR (Biacore), antibody captured on Protein L
T4 construct: Extracellular domain with C-terminal His tag, made in FreeStyle 293 cells; also called mFcγRIII; mFcgRIII
T4 chain: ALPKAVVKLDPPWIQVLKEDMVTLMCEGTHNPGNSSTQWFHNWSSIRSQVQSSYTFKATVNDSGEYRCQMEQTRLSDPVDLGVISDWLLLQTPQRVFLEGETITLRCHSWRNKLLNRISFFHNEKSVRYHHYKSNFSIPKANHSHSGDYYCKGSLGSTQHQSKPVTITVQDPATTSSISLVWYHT

[5] = target: T3, mouse FcγRII; test: SPR (Biacore), KD of H237-mIgG1/MRAL-k0 / KD of variant
Procedure: (§1) Each altered antibody was analyzed for its interaction with each Fcγ receptor prepared above using Biacore T100 (GE Healthcare Japan Corp.), Biacore T200 (GE Healthcare Japan Corp.), Biacore A100, or Biacore 4000. The running buffer used was HBS-EP+ (GE Healthcare Japan Corp.). The assay temperature was set to 25° C. The sensor chips used were chips prepared by immobilizing Protein L (ACTIGEN or BioVision) onto Series S Sensor Chip CM5 (GE Healthcare Japan Corp.) or Series S Sensor Chip CM4 (GE Healthcare Japan Corp.) by the amine coupling method.
(§2) In order to calculate the KD value of each altered antibody for FcγR, kinetic analysis was conducted according to the following method: first, the antibody of interest was captured onto any of these chips and allowed to interact with mFcγR diluted with a running buffer. For the obtained sensorgram, the assay results were globally fit into the 1:1 Langmuir binding model using Biacore Evaluation Software to calculate an association rate constant ka (L/mol/s) and a dissociation rate constant kd (1/s). From these values, the dissociation constant KD (mol/L) was calculated.

[6] = target: T4, mouse FcγRIII; test: as above
Procedure: as §1, §2

Binder | relative mFcγRII-binding activity (mIgG1 = 1) [1] | relative mFcγRIII-binding activity (mIgG1 = 1) [2] | Kd [3] | Kd [4] | relative mFcγRII-binding activity (mIgG1 = 1) [5] | relative mFcγRIII-binding activity (mIgG1 = 1) [6]
H237-MB093/MRAL-k0 (antibody, mouse IgG1, kappa, copies: 2 + 2) heavy: QVQLQESGPGLVKPSETLSLTCAVSGHSISHDHAWSWVRQPPGEGLEWIGFISYSGITNYNPSLQGRVTISRDNSKNTLYLQMNSLRAEDTAVYYCARSLARTTAMDYWGEGTLVTVSSAKTTPPSVYPLAPGSAAQTNSMVTLGCLVKGYFPEPVTVTWNSGSLSSGVHTFPAVLQSDLYTLSSSVTVPSSTWPSETVTCNVAHPASSTKVDKKIVPRDCGCKPCICTVPEVESVFIFPPKPKDVLTITLTPKVTCVVVDISKDDPEVQFSWFVDDVEVHTAQTQPREEQFNSTFRSVSELPIMHQDWLNGKEFKCRVNSAAFPAPIEKTISKTKGRPKAPQVYTIPPPKEQMAKDKVSLTCMITDFFPEDITVEWQWNGQPAENYKNTQPIMDTDGSYFVYSKLNVQKSNWEAGNTFTCSVLHEGLHNHHTEKSLSHSPGK light: not shown | 2.48 fold | 0.61 fold |  |  |  | 
H237-MB125/MRAL-k0 (antibody, mouse IgG1, kappa, copies: 2 + 2) heavy: QVQLQESGPGLVKPSETLSLTCAVSGHSISHDHAWSWVRQPPGEGLEWIGFISYSGITNYNPSLQGRVTISRDNSKNTLYLQMNSLRAEDTAVYYCARSLARTTAMDYWGEGTLVTVSSAKTTPPSVYPLAPGSAAQTNSMVTLGCLVKGYFPEPVTVTWNSGSLSSGVHTFPAVLQSDLYTLSSSVTVPSSTWPSETVTCNVAHPASSTKVDKKIVPRDCGCKPCICTVPEVSWVFIFPPKPKDVLTITLTPKVTCVVVDISKDDPEVQFSWFVDDVEVHTAQTQPREEQFNSTFRSVSELPIMHQDWLNGKEFKCRVNSAAFPAPIEKTISKTKGRPKAPQVYTIPPPKEQMAKDKVSLTCMITDFFPEDITVEWQWNGQPAENYKNTQPIMDTDGSYFVYSKLNVQKSNWEAGNTFTCSVLHEGLHNHHTEKSLSHSPGK light: not shown | 0.81 fold | 0.48 fold |  |  |  | 
H237-MB146/MRAL-k0 (antibody, mouse IgG1, kappa, copies: 2 + 2) heavy: QVQLQESGPGLVKPSETLSLTCAVSGHSISHDHAWSWVRQPPGEGLEWIGFISYSGITNYNPSLQGRVTISRDNSKNTLYLQMNSLRAEDTAVYYCARSLARTTAMDYWGEGTLVTVSSAKTTPPSVYPLAPGSAAQTNSMVTLGCLVKGYFPEPVTVTWNSGSLSSGVHTFPAVLQSDLYTLSSSVTVPSSTWPSETVTCNVAHPASSTKVDKKIVPRDCGCKPCICTVPEVSSVDIFPPKPKDVLTITLTPKVTCVVVDISKDDPEVQFSWFVDDVEVHTAQTQPREEQFNSTFRSVSELPIMHQDWLNGKEFKCRVNSAAFPAPIEKTISKTKGRPKAPQVYTIPPPKEQMAKDKVSLTCMITDFFPEDITVEWQWNGQPAENYKNTQPIMDTDGSYFVYSKLNVQKSNWEAGNTFTCSVLHEGLHNHHTEKSLSHSPGK light: not shown | 0.85 fold | 0.21 fold |  |  |  | 
H237-MB112/MRAL-k0 (antibody, mouse IgG1, kappa, copies: 2 + 2) heavy: QVQLQESGPGLVKPSETLSLTCAVSGHSISHDHAWSWVRQPPGEGLEWIGFISYSGITNYNPSLQGRVTISRDNSKNTLYLQMNSLRAEDTAVYYCARSLARTTAMDYWGEGTLVTVSSAKTTPPSVYPLAPGSAAQTNSMVTLGCLVKGYFPEPVTVTWNSGSLSSGVHTFPAVLQSDLYTLSSSVTVPSSTWPSETVTCNVAHPASSTKVDKKIVPRDCGCKPCICTVPEVSFVFIFPPKPKDVLTITLTPKVTCVVVDISKDDPEVQFSWFVDDVEVHTAQTQPREEQFNSTFRSVSELPIMHQDWLNGKEFKCRVNSAAFPAPIEKTISKTKGRPKAPQVYTIPPPKEQMAKDKVSLTCMITDFFPEDITVEWQWNGQPAENYKNTQPIMDTDGSYFVYSKLNVQKSNWEAGNTFTCSVLHEGLHNHHTEKSLSHSPGK light: not shown | 0.47 fold | 0.27 fold |  |  |  | 
H237-MB864/MRAL-k0 (antibody, mouse IgG1, kappa, '8239L' in r313c2 read as S239L; copies: 2 + 2) heavy: QVQLQESGPGLVKPSETLSLTCAVSGHSISHDHAWSWVRQPPGEGLEWIGFISYSGITNYNPSLQGRVTISRDNSKNTLYLQMNSLRAEDTAVYYCARSLARTTAMDYWGEGTLVTVSSAKTTPPSVYPLAPGSAAQTNSMVTLGCLVKGYFPEPVTVTWNSGSLSSGVHTFPAVLQSDLYTLSSSVTVPSSTWPSETVTCNVAHPASSTKVDKKIVPRDCGCKPCICEPNEVELVFIFPPKPKDVLTITLTPKVTCVVVDISDDDPEVQFSWFVDDVEVHTAQTQPREEQFNSTFRSVSELPIMHQDWLNGKEFKCRVNSDGFPAPIERTISKTKGRPKAPQVYTIPPPKEQMAKDKVSLTCMITDFFPEDITVEWQWNGQPAENYKNTQPIMDTDGSYFVYSKLNVQKSNWEAGNTFTCSVLHEGLHNHHTEKSLSHSPGK light: not shown |  |  | 1.9 nM | 77.6 nM | 110 fold | 3.6 fold
H237-MB075/MRAL-k0 (antibody, mouse IgG1, kappa, copies: 2 + 2) heavy: QVQLQESGPGLVKPSETLSLTCAVSGHSISHDHAWSWVRQPPGEGLEWIGFISYSGITNYNPSLQGRVTISRDNSKNTLYLQMNSLRAEDTAVYYCARSLARTTAMDYWGEGTLVTVSSAKTTPPSVYPLAPGSAAQTNSMVTLGCLVKGYFPEPVTVTWNSGSLSSGVHTFPAVLQSDLYTLSSSVTVPSSTWPSETVTCNVAHPASSTKVDKKIVPRDCGCKPCICTVPEESSVFIFPPKPKDVLTITLTPKVTCVVVDISKDDPEVQFSWFVDDVEVHTAQTQPREEQFNSTFRSVSELPIMHQDWLNGKEFKCRVNSAAFPAPIEKTISKTKGRPKAPQVYTIPPPKEQMAKDKVSLTCMITDFFPEDITVEWQWNGQPAENYKNTQPIMDTDGSYFVYSKLNVQKSNWEAGNTFTCSVLHEGLHNHHTEKSLSHSPGK light: not shown | 0.12 fold | 0.07 fold |  |  |  | 
H237-MB865/MRAL-k0 (antibody, mouse IgG1, kappa, copies: 2 + 2) heavy: QVQLQESGPGLVKPSETLSLTCAVSGHSISHDHAWSWVRQPPGEGLEWIGFISYSGITNYNPSLQGRVTISRDNSKNTLYLQMNSLRAEDTAVYYCARSLARTTAMDYWGEGTLVTVSSAKTTPPSVYPLAPGSAAQTNSMVTLGCLVKGYFPEPVTVTWNSGSLSSGVHTFPAVLQSDLYTLSSSVTVPSSTWPSETVTCNVAHPASSTKVDKKIVPRDCGCKPCICEPNEVELVFIFPPKPKDVLTITLTPKVTCVVVDISDDDPEVQFSWFVDDVEVHTAQTQPREELFNSTFRSVSELPIMHQDWLNGKEFKCRVNSDGFPAPIEKTISKTKGRPKAPQVYTIPPPKEQMAKDKVSLTCMITDFFPEDITVEWQWNGQPAENYKNTQPIMDTDGSYFVYSKLNVQKSNWEAGNTFTCSVLHEGLHNHHTEKSLSHSPGK light: not shown |  |  | 2.51 nM | 84.4 nM | 83.8 fold | 3.3 fold
H237-MB861/MRAL-k0 (antibody, mouse IgG1, kappa, copies: 2 + 2) heavy: QVQLQESGPGLVKPSETLSLTCAVSGHSISHDHAWSWVRQPPGEGLEWIGFISYSGITNYNPSLQGRVTISRDNSKNTLYLQMNSLRAEDTAVYYCARSLARTTAMDYWGEGTLVTVSSAKTTPPSVYPLAPGSAAQTNSMVTLGCLVKGYFPEPVTVTWNSGSLSSGVHTFPAVLQSDLYTLSSSVTVPSSTWPSETVTCNVAHPASSTKVDKKIVPRDCGCKPCICEPNEVELVFIFPPKPKDVLTITLTPKVTCVVVDISDDDPEVQFSWFVDDVEVHTAQTQPREEQFNSTFRSVSELPIMHQDWLNGKEFKCRVDSDGFPAPIEKTISKTKGRPKAPQVYTIPPPKEQMAKDKVSLTCMITDFFPEDITVEWQWNGQPAENYKNTQPIMDTDGSYFVYSKLNVQKSNWEAGNTFTCSVLHEGLHNHHTEKSLSHSPGK light: not shown |  |  | 2.74 nM | 117 nM | 76.8 fold | 2.4 fold
H237-MB092/MRAL-k0 (antibody, mouse IgG1, kappa, copies: 2 + 2) heavy: QVQLQESGPGLVKPSETLSLTCAVSGHSISHDHAWSWVRQPPGEGLEWIGFISYSGITNYNPSLQGRVTISRDNSKNTLYLQMNSLRAEDTAVYYCARSLARTTAMDYWGEGTLVTVSSAKTTPPSVYPLAPGSAAQTNSMVTLGCLVKGYFPEPVTVTWNSGSLSSGVHTFPAVLQSDLYTLSSSVTVPSSTWPSETVTCNVAHPASSTKVDKKIVPRDCGCKPCICTVPEVDSVFIFPPKPKDVLTITLTPKVTCVVVDISKDDPEVQFSWFVDDVEVHTAQTQPREEQFNSTFRSVSELPIMHQDWLNGKEFKCRVNSAAFPAPIEKTISKTKGRPKAPQVYTIPPPKEQMAKDKVSLTCMITDFFPEDITVEWQWNGQPAENYKNTQPIMDTDGSYFVYSKLNVQKSNWEAGNTFTCSVLHEGLHNHHTEKSLSHSPGK light: not shown | 0.16 fold | 0.05 fold |  |  |  | 

Source: patent publication US20150203577A1 (Chugai, published 2015)
